We go through one substance from patent US8217137B2, “Fullerene-based amino acids” (William Marsh Rice University, priority 2004, dated 2012).

Square brackets hold non-standard residues; d marks the D form. Ends that are not written are not given here. BAA = bucky amino acid

In this data set the test system is Rat maxillary incisor pulp cells (RPC-C2A). In words: Cell viability assay (Live-Dead Assay Kit), cytotoxicity of fullerene peptide. The class given is cell-based. The settings on record: 4, 40 and 400 μM peptide solutions in PBS, 100 μL mixed with 1.9 mL medium, 48 hrs incubation, Calcein AM / EthD-1. How it is done:
Rat maxillary incisor pulp cells (RPC-C2A) were seeded on a 24-well tissue culture plate at 3540 cells per well and incubated for 24 hr at 37° C. in a 5% CO2 environment. Dulbecco's Modified Eagle's Medium (DMEM; Invitrogen, NY) was prepared with 10% fetal bovine serum (FBS; BioWhitaker, Walkersville, Md.), 2 mM Amphothericin B, 1 unit/ml penicillin, and 100 mg/l streptomycin (Invitrogen, NY). Three different concentrations of Fullerene peptide solutions (4, 40, and 400 μM) were prepared in PBS and sterilized using 0.2 μm filter syringe. 100 μL of the solution was mixed with 1.9 mL of medium and added to cells. Control was also prepared by adding PBS buffer solution without peptide-modified fullerene to cells. After 48 hrs of incubation, cell viability was determined using Live-Dead Assay Kit (Molecular Probes, Inc., Eugene, Oreg.). Calcein AM is converted to a green fluorescent product within live cells due to enzymatic activity, while ethidium homodimer-1, a red fluorescent compound, accumulates in dead cells due to increased membrane permeability. After removing medium, cells were rinsed with PBS solution twice. Cells in each well was incubated with 0.4 mL of 4 μM EthD-1 and 2 μM of Calcein AM in PBS for 30 min and observed under fluorescent microscope.
For the statistical analysis, the data were compared with two-tailed, unpaired t-tests. […]

With “BAA-Glu-Glu-Glu-Glu-Gly-Gly-Gly-Ser-COOH ([BAA]EEEEGGGS-OH) [fullerene-based peptide, peptide with a bucky amino acid (BAA) at the N-terminus]”, the “toxicity to the cells (cell viability)” value is “no toxicity”.
